# Results taken from patent US20100150906A1 (AC IMMUNE S A, published 2010).
# No end group written: not given here.
# T1: peptide 5 (also: biotinylated, site not given here)
# T1 construct: also called 5 on the axis Peptide number; first peptide library
# T1 peptide: RHDSGYEVH
# T2: peptide 29 (also: biotinylated, site not given here)
# T2 construct: also called 29 on the axis Peptide number; first peptide library
# T2 peptide: GAIIGLMVG
# T3: peptide 4 (also: biotinylated, site not given here)
# T3 construct: also called 4 on the axis Peptide number; first peptide library
# T3 peptide: FRHDSGYEV
# T4: peptide 10 (also: biotinylated, site not given here)
# T4 construct: also called 10 on the axis Peptide number; first peptide library
# T4 peptide: YEVHHQKLV
# T5: peptide 1 (also: biotinylated, site not given here)
# T5 construct: also called 1 on the axis Peptide number; first peptide library
# T5 peptide: DAEFRHDSG
# T6: peptide 32 (also: biotinylated, site not given here)
# T6 construct: also called 32 on the axis Peptide number; first peptide library
# T6 peptide: IGLMVGGVV
# T7: peptide 18 (also: biotinylated, site not given here)
# T7 construct: also called 18 on the axis Peptide number; first peptide library
# T7 peptide: VFFAEDVGS
# T8: peptide 30 (also: biotinylated, site not given here)
# T8 construct: also called 30 on the axis Peptide number; first peptide library
# T8 peptide: AIIGLMVGG
# T9: peptide 6 (also: biotinylated, site not given here)
# T9 construct: also called 6 on the axis Peptide number; first peptide library
# T9 peptide: HDSGYEVHH
# T10: peptide 25 (also: biotinylated, site not given here)
# T10 construct: also called 25 on the axis Peptide number; first peptide library
# T10 peptide: GSNKGAIIG
# T11: peptide 31 (also: biotinylated, site not given here)
# T11 construct: also called 31 on the axis Peptide number; first peptide library
# T11 peptide: IIGLMVGGV
# T12: peptide 8 (also: biotinylated, site not given here)
# T12 construct: also called 8 on the axis Peptide number; first peptide library
# T12 peptide: SGYEVHHQK
# T13: peptide 17 (also: biotinylated, site not given here)
# T13 construct: also called 17 on the axis Peptide number; first peptide library
# T13 peptide: LVFFAEDVG
# T14: peptide 20 (also: biotinylated, site not given here)
# T14 construct: also called 20 on the axis Peptide number; first peptide library
# T14 peptide: FAEDVGSNK
# T15: peptide 21 (also: biotinylated, site not given here)
# T15 construct: also called 21 on the axis Peptide number; first peptide library
# T15 peptide: AEDVGSNKG
# T16: peptide 7 (also: biotinylated, site not given here)
# T16 construct: also called 7 on the axis Peptide number; first peptide library
# T16 peptide: DSGYEVHHQ
# Assays:
# peptide 5 = target: T1, peptide 5; experiment: ELISA, biotinylated peptide on streptavidin plate, O.D. 405 nm [upper chart, Figure 1]
# Description: (§1) One library comprised a total of 33 biotinylated peptides covering the complete amino acid (aa) sequence of Aβ1-42 (produced by Mimotopes and purchased from ANAWA Trading SA), the second library contains biotinylated peptides using peptide 12 (aa12-20 of Aβ) from the first peptide library and substituting each aa in the sequence by an alanine (see table 8 below), and the third library contains biotinylated peptides 13, 14, or 15 (aa 13-21, 14-22 or 15-23 of Aβ) and substituting in each case the last amino acids to an alanine or to a glycine for aa 21 which is already an alanine (see table 9 below). A biotinylated complete Aβ1-42 peptide was used as positive control (Bachem). Epitope mapping was done according to the manufacturer's (Mimotopes) instructions. Briefly, Streptavidin coated plates (NUNC) were blocked with 0.1% BSA in PBS overnight at 4° C. After washing with PBS-0.05% Tween 20, plates were coated for 1 hour at RT with the different peptides from the library, diluted in 0.1% BSA, 0.1% Sodium Azide in PBS to a final concentration of 10 μM. […] Plates were washed again and incubated with alkaline phosphatase conjugated goat anti human IgG for 1 h at RT.
# peptide 29 = target: T2, peptide 29; experiment: as above
# Description: as §1
# peptide 4 = target: T3, peptide 4; experiment: as above
# Description: as §1
# peptide 10 = target: T4, peptide 10; experiment: as above
# Description: as §1
# peptide 1 = target: T5, peptide 1; experiment: as above
# Description: as §1
# peptide 32 = target: T6, peptide 32; experiment: as above
# Description: as §1
# peptide 18 = target: T7, peptide 18; experiment: as above
# Description: as §1
# peptide 30 = target: T8, peptide 30; experiment: as above
# Description: as §1
# peptide 6 = target: T9, peptide 6; experiment: as above
# Description: as §1
# peptide 25 = target: T10, peptide 25; experiment: as above
# Description: as §1
# peptide 31 = target: T11, peptide 31; experiment: as above
# Description: as §1
# peptide 8 = target: T12, peptide 8; experiment: as above
# Description: as §1
# peptide 17 = target: T13, peptide 17; experiment: as above
# Description: as §1
# peptide 20 = target: T14, peptide 20; experiment: as above
# Description: as §1
# peptide 21 = target: T15, peptide 21; experiment: as above
# Description: as §1
# peptide 7 = target: T16, peptide 7; experiment: as above
# Description: as §1
# [1] = target: T17, soluble polymeric amyloid beta (oligomers) (UniProt P05067 672-713); experiment: ELISA on coated amyloid (55 µg/ml); mC2 at 0.078 ug/ml
# T17 construct: domain: amyloid beta 1-42; also called amyloid oligomers; Abeta oligomer
# T17 sequence (P05067 672-713 limits assumed): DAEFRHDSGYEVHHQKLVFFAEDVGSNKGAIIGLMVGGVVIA
# Protocol: In order to evaluate the specificity of mC2 to different stages of polymerized amyloid protein, monomeric, polymeric soluble and fibrillic amyloid, an ELISA coated with these different stages of polymeric beta-amyloid was performed (FIG. 9). Monomers were prepared according to a modified method published by (Klein, 2002), soluble polymeric amyloid beta according to (Barghorn et al., 2005), whereas fibers were performed by incubation of amyloid (Bachem, Switzerland) with a final concentration of 1 μg/μl in Tris/HCl pH 7.4 at 37° C. for 5 days followed by a centrifugation step (10,000 rpm for 5 minutes). Then amyloid polymers were coated on an ELISA plates with a final concentration of 55 μg/ml and binding affinity ELISA by using an anti-mouse IgG monoclonal antibody (Jackson) labelled with alkaline phosphate was performed.
Binder,binding result (peptide 5),binding result (peptide 29),binding result (peptide 4),binding result (peptide 10),binding result (peptide 1),binding result (peptide 32),binding result (peptide 18),binding result (peptide 30),binding result (peptide 6),binding result (peptide 25),binding result (peptide 31),binding result (peptide 8),binding result (peptide 17),binding result (peptide 20),binding result (peptide 21),binding result (peptide 7),O.D [1]
"humanized anti-human amyloid beta monoclonal antibody hC2 (antibody, human IgG4 S228P, kappa, V domains shown, also called humanized antibody C2; humanized C2) VH: EVQLVESGGGLVQPGGSLRLSCAASGFTFSSYGMSWVRQAPGKGLELVASINSNGGSTYYPDSVKGRFTISRDNAKNSLYLQMNSLRAEDTAVYYCASGDYWGQGTTVTVSS VL: DIVMTQSPLSLPVTPGEPASISCRSSQSLVYSNGDTYLHWYLQKPGQSPQLLIYKVSNRFSGVPDRFSGSGSGTDFTLKISRVEAEDVGVYYCSQSTHVPWTFGQGTKVEIKR",no binding (tested: 200 ng/ml (single concentration)),no binding (tested: 200 ng/ml (single concentration)),no binding (tested: 200 ng/ml (single concentration)),no binding (tested: 200 ng/ml (single concentration)),no binding (tested: 200 ng/ml (single concentration)),no binding (tested: 200 ng/ml (single concentration)),no binding (tested: 200 ng/ml (single concentration)),no binding (tested: 200 ng/ml (single concentration)),no binding (tested: 200 ng/ml (single concentration)),no binding (tested: 200 ng/ml (single concentration)),no binding (tested: 200 ng/ml (single concentration)),no binding (tested: 200 ng/ml (single concentration)),no binding (tested: 200 ng/ml (single concentration)),no binding (tested: 200 ng/ml (single concentration)),no binding (tested: 200 ng/ml (single concentration)),no binding (tested: 200 ng/ml (single concentration)),
"mouse monoclonal antibody ACI-01-Ab7C2 (antibody, V domains shown, also called mC2; mACI-01-Ab7 C2) VH: EVQLVESGGGLVQPGGSLKLSCAASGFTFSSYGMSWVRQTPDKRLELVASINSNGGSTYYPDSVKGRFTISRDNAKNTLYLQMSSLKSEDTAMYYCASGDYWGQGSTLTVSS VL: DVVMTQTPLSLPVSLGDQASISCRSSQSLVYSNGDTYLHWYLQKPGQSPKLLIYKVSNRFSGVPDRFSGSGSGTDFTLKISRVEAEDLGVYFCSQSTHVPWTFGGGTKLEIK",,,,,,,,,,,,,,,,,0.652 O.D
